According to US20190389970A1:

Columns and labels:
[1] = biological target: Free BSA (Sigma A6003) (UniProt P02769); assay: ELISA, free BSA coated at 300 ng/well, anti-IgG (gamma) detection
[2] = biological target: Free BSA (Sigma A6003) (UniProt P02769); assay: ELISA, free BSA coated at 500 ng/well in sodium bicarbonate, gamma detection, antibody at 1 µg/ml
[3] = biological target: Free BSA (Sigma A6003) (UniProt P02769); assay: ELISA, free BSA coated at 500 ng/well in sodium bicarbonate, gamma detection, antibody at 10 µg/ml
[4] = biological target: Free BSA (Sigma A6003) (UniProt P02769); assay: ELISA, free BSA coated at 500 ng/well in sodium bicarbonate, gamma detection, antibody at 0.1 µg/ml

UniProt P02769, sequence (P02769 25-607 limits assumed): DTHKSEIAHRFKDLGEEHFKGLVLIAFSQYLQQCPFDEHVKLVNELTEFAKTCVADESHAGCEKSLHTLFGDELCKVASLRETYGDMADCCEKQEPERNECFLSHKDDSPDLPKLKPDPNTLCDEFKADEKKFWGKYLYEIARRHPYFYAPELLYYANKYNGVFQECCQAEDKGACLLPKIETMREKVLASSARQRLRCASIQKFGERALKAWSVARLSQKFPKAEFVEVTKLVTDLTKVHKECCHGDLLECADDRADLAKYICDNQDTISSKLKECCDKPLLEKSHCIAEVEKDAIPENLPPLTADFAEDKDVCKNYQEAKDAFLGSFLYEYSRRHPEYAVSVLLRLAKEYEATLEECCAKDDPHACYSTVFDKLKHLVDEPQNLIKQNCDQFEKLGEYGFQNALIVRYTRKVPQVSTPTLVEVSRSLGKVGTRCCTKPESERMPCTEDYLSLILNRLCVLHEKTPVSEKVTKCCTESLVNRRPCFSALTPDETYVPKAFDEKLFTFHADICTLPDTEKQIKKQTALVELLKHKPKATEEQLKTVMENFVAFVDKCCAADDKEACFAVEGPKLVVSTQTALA

Row | Binder | OD [1] [OD] | OD [2] [OD] | OD [3] [OD] | OD [4] [OD]
1 | 9H10 (antibody, IgM, V domains shown) VH: QVQLKQSGPGLVQPSQSLSITCTVSGFSLTSYGVHWVRQSPGKGLEWLGVIWSGGSTDYNAAFISRLSISKDNSKSQVFFKMNSLQADDTAIYYCARNYGYDYAMDYWGQGTSVTVSS VL: DILLTQSPAILSVSPGERVSFSCRASQSIGTSIHWYQQRTNGSPRLLIKYASESISGIPSRFSGSGSGTDFTLSINSVESEDIADYYCQQSNSWPFTFGSGTKLEIK | 0.095 | – | – | –
2 | 6C8 (antibody, V domains shown) VH: QVQLQQSGAELVKPGASVKISCKASGYAFSSYWMNWVKQRPGKGLEWIGQIYPGDGDTNYNGKFKGKATLTADKSSSTAYMQLSSLTSEDSAVYFCTRRCYYGLYFDVWGTGTTVTVSS VL: DIKMTQSPSSRYASLGERVTITCKASQDINRYLSWFQQKPGKSPKTLIYRANRLVDGVPSRFSGSGSGQDYSLTISSLEYEDMGIYYCLQYDEFPYTFGGGTKLEIK | 0.098 | 0.057 | 0.062 | 0.056
3 | 6B5 (antibody, V domains shown) VH: QVQLQQSDAELVKPGASVKISCKVSGYTFTDHTIHWMKQRPEQGLEWIGYNYPRDGSTKYNEKFKGKATLTADKSSSTAYMQLNSLTSEDSAVYFCAKGFITTVVPSAYWGQGTLVTVSA VL: DVQITQSPSYLAASPGETITINCRASKSISKYLAWYQEKPGKTNKLLIYSGSTLQSGIPSRFSGSGSGTDFTLTISSLEPEDFAMYYCQQHNEYPWTFGGGTKLEIK | 1.29 | 0.119 | 0.15 | 0.079
4 | 7B10 (antibody, IgM, V domains shown) VH: QVQLQQSGAELAKPGASVKLSCKASGYTFTSYWMHWVKQRPGQGLEWIGYINPSSGYTKYNQKFKDKATLTADKSSSTAYMQLSSLTYEDSAVYYCARGGYYGFAYWGQGTLVTVSA VL: QIVLTQSPALMSASPGEKVTMTCSASSSVSYMYWYQQKPRSSPKPWIYLTSNLASGVPARFSGSGSGTSYSLTISSMEAEDAATYYCQQWSSNPLTFGAGTKLELK | 0.077 | – | – | –
5 | 9H11 (antibody, IgM, V domains shown) VH: QVQLQQSGAELAKPGASVKLSCKASGYTFTSYWMHWVKQRPGQGLEWIGYINPSSGYTKYNQKFKDKATLTADKSSSTAYMQLSSLTYEDSAVYYCARGGYYGFAYWGQGTLVTVSA VL: QIVLTQSPALMSASPGEKVTMTCSASSSVSYMYWYQQKPRSSPKPWIYLTSNLASGVPARFSGSGSGTSYSLTISSMEAEDAATYYCQQWSSNPLTFGAGTKLELK | 0.105 | – | – | –
